One data set addresses c-Src SH2. The data set can be described thus: SH2 binding enrichment of the phosphorylated peptide, bacterial display (enrichment ratio); higher = better substrate or ligand; peptides without Tyr show the background.
For the next data set, the target named is Grb2 SH2 (UniProt P62993). The data set is described as above.
In a further data set the target is SHP2-C SH2. Described as above.
The test system of another data set is c-Abl (mouse). The data set can be described thus: phosphorylation enrichment, bacterial display (enrichment ratio); higher = better substrate or ligand; peptides without Tyr show the background.
The target in another data set is Fes (UniProt P07332). Described as above.
In the next data set the test system is c-Src. The description is as above.
The next data set deals with Fer (mouse). The description is as above.
In the next data set the test system is AncSZ. Described as above.
The next data set deals with Fyn (UniProt P06241). The description is as above.
A further data set addresses EPHB1 (UniProt P54762). Described as above.
The target of the next data set is EPHB2 (UniProt P29323). The data set is described as above.
The target of the next data set is FGFR3 (UniProt P22607). The data set is described as above.
In the next data set the target is Jak2 (UniProt O60674). The description is as above.
The target of another data set is FGFR1 (UniProt P11362). Described as above.
In a further data set the target is MERTK (UniProt Q12866). The description is as above.
The next data set addresses Hck (UniProt P08631). The description is as above.
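Wherever SH2 binding enrichment of the phosphorylated peptide, bacterial display is given: peptide library displayed on the E. coli surface as eCPX fusions, selected cells deep-sequenced, score is each peptide's frequency after selection divided by its frequency in the input.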
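Wherever phosphorylation enrichment, bacterial display is given: 11-residue human phosphosite peptides and single-mutation variants displayed on the E. coli surface, counted by deep sequencing, each peptide's frequency after selection divided by its frequency in the unselected input library; frequency after pTyr selection over input frequency; kinase dosed for 20-30% of maximal phosphorylation in three min.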

Chain of Fyn (P06241 whole entry, looked up): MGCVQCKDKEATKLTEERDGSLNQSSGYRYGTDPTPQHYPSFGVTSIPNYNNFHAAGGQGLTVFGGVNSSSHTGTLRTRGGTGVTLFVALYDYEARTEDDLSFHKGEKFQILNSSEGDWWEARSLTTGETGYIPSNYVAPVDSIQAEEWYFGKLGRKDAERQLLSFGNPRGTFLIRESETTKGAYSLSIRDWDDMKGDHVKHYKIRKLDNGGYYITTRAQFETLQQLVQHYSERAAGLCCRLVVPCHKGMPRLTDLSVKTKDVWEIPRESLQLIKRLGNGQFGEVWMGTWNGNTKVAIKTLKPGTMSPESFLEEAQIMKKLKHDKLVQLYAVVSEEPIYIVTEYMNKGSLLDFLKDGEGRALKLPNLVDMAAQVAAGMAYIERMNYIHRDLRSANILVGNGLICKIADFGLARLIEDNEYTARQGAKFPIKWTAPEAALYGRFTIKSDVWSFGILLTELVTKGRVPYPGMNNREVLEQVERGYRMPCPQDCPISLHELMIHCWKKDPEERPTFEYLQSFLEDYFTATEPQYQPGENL
Chain of Fes (P07332 whole entry, looked up): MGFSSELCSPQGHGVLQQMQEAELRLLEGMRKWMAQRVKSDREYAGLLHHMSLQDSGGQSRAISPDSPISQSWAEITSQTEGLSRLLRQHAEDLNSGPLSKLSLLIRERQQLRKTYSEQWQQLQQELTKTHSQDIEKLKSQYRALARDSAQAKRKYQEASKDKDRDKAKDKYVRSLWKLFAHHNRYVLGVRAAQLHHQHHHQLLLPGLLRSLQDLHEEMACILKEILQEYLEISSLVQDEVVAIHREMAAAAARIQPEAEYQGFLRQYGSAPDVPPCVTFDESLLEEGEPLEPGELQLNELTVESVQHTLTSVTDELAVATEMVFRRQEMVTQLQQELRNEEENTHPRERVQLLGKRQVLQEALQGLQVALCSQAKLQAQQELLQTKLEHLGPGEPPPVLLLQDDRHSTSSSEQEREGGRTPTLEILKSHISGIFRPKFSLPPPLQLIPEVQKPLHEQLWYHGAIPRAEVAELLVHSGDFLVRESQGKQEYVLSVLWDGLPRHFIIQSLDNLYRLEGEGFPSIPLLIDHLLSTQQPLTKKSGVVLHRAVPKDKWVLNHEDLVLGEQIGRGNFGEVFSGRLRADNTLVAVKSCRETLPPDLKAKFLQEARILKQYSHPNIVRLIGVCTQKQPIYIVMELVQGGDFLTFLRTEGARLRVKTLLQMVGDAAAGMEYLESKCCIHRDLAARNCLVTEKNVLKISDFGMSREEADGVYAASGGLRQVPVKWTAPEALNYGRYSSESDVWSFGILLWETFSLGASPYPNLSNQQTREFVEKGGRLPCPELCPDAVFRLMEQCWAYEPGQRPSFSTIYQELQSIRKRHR
Chain of Jak2 (O60674 whole entry, looked up): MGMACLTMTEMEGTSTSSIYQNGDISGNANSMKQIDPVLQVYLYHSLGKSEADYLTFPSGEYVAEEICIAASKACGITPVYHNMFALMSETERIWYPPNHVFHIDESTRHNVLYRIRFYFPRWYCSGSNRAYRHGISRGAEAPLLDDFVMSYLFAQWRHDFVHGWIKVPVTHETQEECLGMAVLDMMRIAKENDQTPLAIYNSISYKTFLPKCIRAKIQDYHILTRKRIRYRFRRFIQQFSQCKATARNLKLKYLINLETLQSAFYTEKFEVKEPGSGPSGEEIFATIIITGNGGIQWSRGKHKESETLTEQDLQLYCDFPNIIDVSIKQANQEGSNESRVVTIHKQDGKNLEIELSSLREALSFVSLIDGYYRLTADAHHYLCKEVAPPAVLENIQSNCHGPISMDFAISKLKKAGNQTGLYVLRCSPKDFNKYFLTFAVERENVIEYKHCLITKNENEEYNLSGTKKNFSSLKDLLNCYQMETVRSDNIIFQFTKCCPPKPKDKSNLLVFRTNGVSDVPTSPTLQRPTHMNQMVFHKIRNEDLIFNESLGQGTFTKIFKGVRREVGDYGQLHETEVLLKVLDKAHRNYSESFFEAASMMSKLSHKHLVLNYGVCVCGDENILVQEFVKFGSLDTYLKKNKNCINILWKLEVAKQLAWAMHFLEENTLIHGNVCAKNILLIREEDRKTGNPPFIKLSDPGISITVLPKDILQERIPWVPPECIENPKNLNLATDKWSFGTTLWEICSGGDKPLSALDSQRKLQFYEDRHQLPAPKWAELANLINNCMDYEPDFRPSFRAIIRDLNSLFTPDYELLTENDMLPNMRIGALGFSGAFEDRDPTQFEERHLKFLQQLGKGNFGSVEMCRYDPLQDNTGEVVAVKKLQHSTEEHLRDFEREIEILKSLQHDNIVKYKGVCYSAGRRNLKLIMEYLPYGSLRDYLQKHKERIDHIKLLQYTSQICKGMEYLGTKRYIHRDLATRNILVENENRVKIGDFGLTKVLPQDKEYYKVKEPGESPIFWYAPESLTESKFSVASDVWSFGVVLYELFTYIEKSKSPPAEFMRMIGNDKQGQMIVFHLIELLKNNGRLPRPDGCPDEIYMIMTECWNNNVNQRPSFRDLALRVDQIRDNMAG
Chain of Hck (P08631 whole entry, looked up, the tested form may be a part): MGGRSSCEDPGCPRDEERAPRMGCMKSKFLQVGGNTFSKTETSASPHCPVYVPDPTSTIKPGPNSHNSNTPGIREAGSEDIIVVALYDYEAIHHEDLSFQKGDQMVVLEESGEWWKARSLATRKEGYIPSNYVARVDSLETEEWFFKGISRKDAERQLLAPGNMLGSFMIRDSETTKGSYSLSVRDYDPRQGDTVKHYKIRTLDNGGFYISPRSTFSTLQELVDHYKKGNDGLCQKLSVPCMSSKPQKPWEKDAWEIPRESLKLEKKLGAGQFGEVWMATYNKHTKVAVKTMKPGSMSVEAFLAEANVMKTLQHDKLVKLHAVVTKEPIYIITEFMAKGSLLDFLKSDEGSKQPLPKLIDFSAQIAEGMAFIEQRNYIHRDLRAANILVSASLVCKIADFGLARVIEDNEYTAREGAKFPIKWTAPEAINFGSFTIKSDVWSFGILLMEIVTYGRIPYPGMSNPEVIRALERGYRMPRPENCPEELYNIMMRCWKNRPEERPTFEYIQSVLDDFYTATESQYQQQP
Chain of EPHB1 (P54762 whole entry, looked up): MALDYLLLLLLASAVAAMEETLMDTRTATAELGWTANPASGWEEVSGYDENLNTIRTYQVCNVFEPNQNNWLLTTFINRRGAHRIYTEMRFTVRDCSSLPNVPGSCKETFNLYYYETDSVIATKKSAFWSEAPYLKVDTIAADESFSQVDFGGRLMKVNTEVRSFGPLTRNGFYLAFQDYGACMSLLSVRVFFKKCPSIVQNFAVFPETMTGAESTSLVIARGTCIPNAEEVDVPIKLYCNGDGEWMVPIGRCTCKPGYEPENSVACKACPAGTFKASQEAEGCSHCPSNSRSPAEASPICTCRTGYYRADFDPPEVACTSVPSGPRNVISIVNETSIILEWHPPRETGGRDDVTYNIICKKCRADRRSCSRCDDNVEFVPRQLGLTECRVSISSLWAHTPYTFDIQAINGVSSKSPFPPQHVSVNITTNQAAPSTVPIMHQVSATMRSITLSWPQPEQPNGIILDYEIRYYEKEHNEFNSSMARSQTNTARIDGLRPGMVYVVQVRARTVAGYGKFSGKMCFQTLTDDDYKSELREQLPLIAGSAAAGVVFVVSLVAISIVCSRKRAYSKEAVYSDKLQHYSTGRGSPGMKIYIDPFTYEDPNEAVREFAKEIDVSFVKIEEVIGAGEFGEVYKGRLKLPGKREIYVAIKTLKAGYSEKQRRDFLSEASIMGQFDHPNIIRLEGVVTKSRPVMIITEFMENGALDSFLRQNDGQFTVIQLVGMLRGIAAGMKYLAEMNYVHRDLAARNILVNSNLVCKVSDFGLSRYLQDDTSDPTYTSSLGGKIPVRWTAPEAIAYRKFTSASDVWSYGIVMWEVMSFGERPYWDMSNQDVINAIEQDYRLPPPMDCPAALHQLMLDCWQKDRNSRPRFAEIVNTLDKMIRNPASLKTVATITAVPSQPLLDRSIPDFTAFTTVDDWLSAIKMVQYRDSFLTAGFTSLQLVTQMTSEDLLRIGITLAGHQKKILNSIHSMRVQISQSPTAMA
Chain of MERTK (Q12866 whole entry, looked up): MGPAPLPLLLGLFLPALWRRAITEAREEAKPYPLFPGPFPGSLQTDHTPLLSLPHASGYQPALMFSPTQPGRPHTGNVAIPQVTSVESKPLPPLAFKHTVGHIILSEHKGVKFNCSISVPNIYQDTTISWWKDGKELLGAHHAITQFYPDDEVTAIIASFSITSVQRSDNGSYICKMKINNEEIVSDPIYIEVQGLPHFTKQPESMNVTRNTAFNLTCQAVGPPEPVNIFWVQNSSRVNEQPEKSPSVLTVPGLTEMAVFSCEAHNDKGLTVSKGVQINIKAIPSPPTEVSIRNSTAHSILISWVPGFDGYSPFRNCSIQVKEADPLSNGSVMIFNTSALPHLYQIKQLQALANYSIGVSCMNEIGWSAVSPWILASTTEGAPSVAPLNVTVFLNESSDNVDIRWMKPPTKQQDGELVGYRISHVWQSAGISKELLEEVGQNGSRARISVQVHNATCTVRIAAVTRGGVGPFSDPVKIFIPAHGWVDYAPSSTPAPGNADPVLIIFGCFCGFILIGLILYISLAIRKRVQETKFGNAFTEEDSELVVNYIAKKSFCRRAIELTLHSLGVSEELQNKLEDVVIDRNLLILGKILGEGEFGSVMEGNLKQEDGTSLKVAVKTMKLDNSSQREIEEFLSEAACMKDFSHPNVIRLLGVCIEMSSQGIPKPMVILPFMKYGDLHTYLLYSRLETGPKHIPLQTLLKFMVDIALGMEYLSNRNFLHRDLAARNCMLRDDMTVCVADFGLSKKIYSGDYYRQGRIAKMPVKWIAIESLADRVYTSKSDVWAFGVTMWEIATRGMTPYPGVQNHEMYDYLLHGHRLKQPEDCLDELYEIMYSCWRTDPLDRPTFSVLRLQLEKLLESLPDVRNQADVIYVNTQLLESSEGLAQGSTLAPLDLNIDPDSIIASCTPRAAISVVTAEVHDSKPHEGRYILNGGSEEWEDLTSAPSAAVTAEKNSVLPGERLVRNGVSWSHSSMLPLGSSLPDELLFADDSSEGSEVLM

For the sequence HEKKAYSFCGT [RPS6KA3_Y226], the SH2 binding enrichment is 0.808 with c-Src SH2, 0.999 with Grb2 SH2 and 0.729 with SHP2-C SH2. Further, the phosphorylation enrichment was determined as 0.725 with c-Abl (mouse); 1.8 with Fes; 0.65 in the data set with c-Src; 0.989 with Fer (mouse); 1.73 with AncSZ; 1.09 with Fyn. The phosphorylation enrichment with EPHB1 was found to be 0.703; in the data set with EPHB2, 1.18; with FGFR3, 1.68; in the data set with Jak2, 0.695; with FGFR1, 1.51; with MERTK, 0.725. Besides, the phosphorylation enrichment with Hck was found to be 1.49.
For the sequence HEKRAYICAHP [ACAD9_Y611_L606H], the SH2 binding enrichment came to 0.969 with c-Src SH2, 0.96 with Grb2 SH2 and 0.962 with SHP2-C SH2. Also, the phosphorylation enrichment in the data set on c-Abl (mouse) is 0.59; with Fes it was 0.77; in the data set with c-Src, 0.448; with Fer (mouse) it was 0.593; in the data set on AncSZ it was 0.742; in the data set with Fyn, 0.447. The phosphorylation enrichment in the data set with EPHB1 is 0.454; with EPHB2 it was 0.434; with FGFR3, 0.548; with Jak2 it was 1.3; with FGFR1 it was 0.543; in the data set with MERTK, 0.439. For the same sequence, the phosphorylation enrichment with Hck was found to be 0.49.
For the sequence HEPKGYNANFC [TGFB2_Y341], the SH2 binding enrichment turned out to be 0.664 with c-Src SH2, 1.07 with Grb2 SH2 and 0.693 with SHP2-C SH2. In addition, the phosphorylation enrichment in the data set with c-Abl (mouse) worked out at 0.847; with Fes it was 0.92; with c-Src it was 0.595; in the data set on Fer (mouse) it was 0.581; in the data set with AncSZ, 0.808; in the data set with Fyn it was 0.558. Moreover, the phosphorylation enrichment in the data set with EPHB1 is 0.656; with EPHB2, 0.719; with FGFR3, 0.596; with Jak2, 0.737; in the data set with FGFR1, 0.647; with MERTK, 0.559. Besides, in the data set with Hck, the phosphorylation enrichment was 0.553.
As for HFPFQYHRQLF [F12_Y53_YF], the SH2 binding enrichment with c-Src SH2 worked out at 1.14; with Grb2 SH2 it was 1.67; in the data set with SHP2-C SH2, 1.14. The phosphorylation enrichment in the data set with c-Abl (mouse) came out at 1.44; with Fes, 0.78; in the data set with c-Src, 0.546; with Fer (mouse), 0.538; in the data set with AncSZ it was 0.924; with Fyn, 0.466. Besides, the phosphorylation enrichment with EPHB1 was 0.618; in the data set with EPHB2, 0.585; with FGFR3, 0.694; in the data set with Jak2 it was 0.669; in the data set with FGFR1, 0.555; with MERTK, 0.507. Moreover, the phosphorylation enrichment in the data set with Hck stood at 0.52.
In the case of HGDDDYDDPEL [CLNK_Y69_S65G], the SH2 binding enrichment with c-Src SH2 turned out to be 0.565; with Grb2 SH2 it was 0.99; with SHP2-C SH2, 0.551. In addition, the phosphorylation enrichment with c-Abl (mouse) stood at 0.745; with Fes it was 2; with c-Src, 0.477; in the data set on Fer (mouse), 0.717; in the data set with AncSZ, 1.91; in the data set with Fyn, 0.69. In addition, the phosphorylation enrichment with EPHB1 is 0.756; with EPHB2, 0.753; in the data set with FGFR3, 1.02; with Jak2, 1.39; with FGFR1 it was 0.91; with MERTK, 0.667. Moreover, the phosphorylation enrichment in the data set with Hck came to 0.743.
For the sequence HIAKVYRRDNP [HARS1_Y156], the SH2 binding enrichment is 0.747 with c-Src SH2, 1.36 with Grb2 SH2 and 0.722 with SHP2-C SH2. Further, the phosphorylation enrichment in the data set with c-Abl (mouse) is 1.24; with Fes, 0.989; with c-Src it was 1.02; in the data set on Fer (mouse), 0.507; in the data set with AncSZ it was 0.982; with Fyn it was 0.775. The phosphorylation enrichment in the data set with EPHB1 came to 0.36; in the data set with EPHB2, 0.463; with FGFR3, 0.772; in the data set with Jak2 it was 0.659; with FGFR1, 0.451; with MERTK, 0.734. For the same sequence, the phosphorylation enrichment with Hck was 0.592.
As for HITQVYGFFDE [PPP2CA_Y127_Q122H_YF], the SH2 binding enrichment in the data set with c-Src SH2 came to 0.838; with Grb2 SH2 it was 1.56; in the data set with SHP2-C SH2 it was 1.12. The phosphorylation enrichment with c-Abl (mouse) came out at 1.69; with Fes, 2.38; with c-Src it was 12.7; in the data set with Fer (mouse) it was 0.823; in the data set on AncSZ it was 2.03; in the data set with Fyn, 15.7. Moreover, the phosphorylation enrichment was determined as 1.09 in the data set with EPHB1; 1.11 with EPHB2; 1.16 in the data set with FGFR3; 1.95 in the data set with Jak2; 1.32 with FGFR1; 2.8 with MERTK. Moreover, in the data set with Hck, the phosphorylation enrichment is 7.13.
For HLDRSYSFSFS [PEAR1_Y890_R885H_YF], the SH2 binding enrichment with c-Src SH2 is 0.563; with Grb2 SH2, 0.808; in the data set with SHP2-C SH2 it was 0.448. Besides, the phosphorylation enrichment with c-Abl (mouse) came to 1.17; with Fes it was 2.08; in the data set on c-Src it was 1.12; with Fer (mouse) it was 0.999; in the data set with AncSZ, 1.75; in the data set with Fyn it was 0.561. For the same sequence, the phosphorylation enrichment with EPHB1 came to 0.638; with EPHB2 it was 0.658; in the data set with FGFR3, 0.897; with Jak2, 1.78; with FGFR1, 0.841; with MERTK, 0.964. Besides, in the data set with Hck, the phosphorylation enrichment amounted to 0.726.

Source of the values: the supplement of paper PMC10065799, “High-throughput profiling of sequence recognition by tyrosine kinases and SH2 domains using bacterial peptide display” (eLife, 2023).
